According to patent US20180117114A1, “PEPTIDES THAT MODULATE THE EFFECT OF THE CRMP: NEUROFIBROMIN COMPLEX ON SYNAPTIC TRANSMISSION” (Indiana University Research and Technology Coporation, priority 2015, published 2018):

Tests used:
Test in all cases: cell-based or functional assay
[1] = target: CaV2.2 in dorsal root ganglion neurons from Nf1+/- mice (mouse) (UniProt O55017)
[2] = target: CaV2.2 expressed in human embryonic kidney 293 (HEK293) cells
[3] = target: CaV2.2 in transfected neurons

Chain of CaV2.2 in dorsal root ganglion neurons from Nf1+/- mice (mouse) (O55017 whole entry): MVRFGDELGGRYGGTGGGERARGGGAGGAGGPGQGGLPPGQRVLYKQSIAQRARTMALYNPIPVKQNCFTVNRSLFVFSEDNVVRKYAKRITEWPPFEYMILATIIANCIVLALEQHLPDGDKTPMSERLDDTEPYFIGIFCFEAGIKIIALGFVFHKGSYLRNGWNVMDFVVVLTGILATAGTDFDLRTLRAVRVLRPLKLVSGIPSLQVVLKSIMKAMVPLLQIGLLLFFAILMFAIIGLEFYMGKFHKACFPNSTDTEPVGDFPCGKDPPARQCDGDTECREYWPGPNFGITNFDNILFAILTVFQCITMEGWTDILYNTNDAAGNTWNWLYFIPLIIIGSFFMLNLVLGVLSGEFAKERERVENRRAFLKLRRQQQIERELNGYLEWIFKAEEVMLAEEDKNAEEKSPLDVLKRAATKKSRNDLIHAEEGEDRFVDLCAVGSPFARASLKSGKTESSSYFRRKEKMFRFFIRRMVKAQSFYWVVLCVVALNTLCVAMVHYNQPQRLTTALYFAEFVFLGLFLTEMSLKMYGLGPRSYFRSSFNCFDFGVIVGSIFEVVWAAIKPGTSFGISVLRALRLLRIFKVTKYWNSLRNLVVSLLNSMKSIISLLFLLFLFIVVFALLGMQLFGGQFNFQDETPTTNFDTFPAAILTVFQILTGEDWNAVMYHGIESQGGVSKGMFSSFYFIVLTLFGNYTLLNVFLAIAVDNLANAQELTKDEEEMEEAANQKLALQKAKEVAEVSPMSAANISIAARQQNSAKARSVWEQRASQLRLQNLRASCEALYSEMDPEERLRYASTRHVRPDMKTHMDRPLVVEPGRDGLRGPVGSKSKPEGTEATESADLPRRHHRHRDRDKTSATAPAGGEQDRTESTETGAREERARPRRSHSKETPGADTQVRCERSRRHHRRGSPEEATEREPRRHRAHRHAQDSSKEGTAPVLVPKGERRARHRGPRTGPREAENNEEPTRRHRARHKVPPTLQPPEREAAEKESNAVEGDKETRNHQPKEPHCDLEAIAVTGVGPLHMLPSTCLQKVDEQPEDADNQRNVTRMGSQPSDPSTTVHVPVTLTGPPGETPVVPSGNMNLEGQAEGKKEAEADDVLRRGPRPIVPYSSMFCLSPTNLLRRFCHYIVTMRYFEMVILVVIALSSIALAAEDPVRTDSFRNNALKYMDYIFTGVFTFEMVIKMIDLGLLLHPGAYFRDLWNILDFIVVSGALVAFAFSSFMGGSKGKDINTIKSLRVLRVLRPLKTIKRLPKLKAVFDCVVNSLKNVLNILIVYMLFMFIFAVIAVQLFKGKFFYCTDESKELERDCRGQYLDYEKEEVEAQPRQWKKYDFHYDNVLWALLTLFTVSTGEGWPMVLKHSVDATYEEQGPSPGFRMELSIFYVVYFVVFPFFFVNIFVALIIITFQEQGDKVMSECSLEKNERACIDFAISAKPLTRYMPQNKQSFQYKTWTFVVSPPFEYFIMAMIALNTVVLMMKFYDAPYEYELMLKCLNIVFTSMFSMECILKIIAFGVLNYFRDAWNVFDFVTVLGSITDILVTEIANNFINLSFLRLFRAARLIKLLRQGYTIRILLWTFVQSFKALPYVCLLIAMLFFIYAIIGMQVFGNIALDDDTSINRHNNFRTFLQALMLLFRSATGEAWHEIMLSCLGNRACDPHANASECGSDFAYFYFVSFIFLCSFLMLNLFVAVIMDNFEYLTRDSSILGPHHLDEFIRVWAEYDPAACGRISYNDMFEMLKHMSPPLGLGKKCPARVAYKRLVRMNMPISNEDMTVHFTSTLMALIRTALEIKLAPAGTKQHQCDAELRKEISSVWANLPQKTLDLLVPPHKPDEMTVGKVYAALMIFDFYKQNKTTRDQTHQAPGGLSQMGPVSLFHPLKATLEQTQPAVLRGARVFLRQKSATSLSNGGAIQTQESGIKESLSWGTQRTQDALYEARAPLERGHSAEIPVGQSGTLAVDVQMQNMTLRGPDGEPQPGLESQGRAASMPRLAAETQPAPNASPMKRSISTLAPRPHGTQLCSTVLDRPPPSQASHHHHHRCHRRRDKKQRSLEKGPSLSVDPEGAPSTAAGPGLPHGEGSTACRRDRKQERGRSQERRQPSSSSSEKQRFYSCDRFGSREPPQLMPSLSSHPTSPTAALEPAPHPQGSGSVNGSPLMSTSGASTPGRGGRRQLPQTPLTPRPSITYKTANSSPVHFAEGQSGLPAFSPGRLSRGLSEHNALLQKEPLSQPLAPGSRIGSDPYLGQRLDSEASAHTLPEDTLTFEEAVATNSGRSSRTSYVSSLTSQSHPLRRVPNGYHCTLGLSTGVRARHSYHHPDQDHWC

Substance | reduction in KCl-stimulated CGRP release compared with TAT-control (10 µM TAT-CBD3) [1] [%] | cells exhibiting CaV2.2 staining on the surface [2] [%] | reduction of peak Ca^2+ current density compared to CRMP-2 neurons (whole-cell voltage clamp) [3] [%]
TAT-CBD3 (peptide) | 85 |  | 
CBD3 peptide fused to enhanced green fluorescent protein (EGFP) |  | 10 | 64
